Measurements: US20110143963A1

Assays:
[1] = biological target: ARVCF peptide PQPVDSWV-COOH (eight-residue motif corresponding to the ARVCF C-terminus); test: IC50 for the ARVCF peptide; method not stated with the table
[2] = biological target: ARVCF peptide PQPVDSWV-COOH (eight-residue motif corresponding to the ARVCF C-terminus); test: SPR (BIAcore)
[3] = biological target: ARVCF peptide PQPVDSWV-COOH (eight-residue motif corresponding to the ARVCF C-terminus); test: SPR
[4] = biological target: ARVCF peptide PQPVDSWV-COOH (eight-residue motif corresponding to the ARVCF C-terminus); test: SPR, ratio of Kd
[5] = biological target: δ-catenin peptide PASPDSWV-COOH; test: SPR, ratio of Kd; ratio Kd(δ-catenin)/Kd(ARVCF) derived from the same SPR values, not a separate measurement
[6] = biological target: δ-catenin peptide PASPDSWV-COOH; test: SPR (BIAcore); SPR, soluble ePDZ-b; only a lower bound on Kd (very weak binding); same conditions as the other rows
[7] = biological target: ARVCF peptide with Ala substitution at position -4; test: SPR, Ala scan of the ARVCF peptide
[8] = biological target: δ-catenin peptide PASPDSWV-COOH; test: SPR, ratio of Kd
[9] = biological target: δ-catenin peptide PASPDSWV-COOH; test: SPR (BIAcore), column δ-Catenin; number at the right of panel F (off rate per paragraph 112), unit from the column head of Table 4
[10] = biological target: δ-catenin peptide PASPDSWV-COOH; test: SPR (BIAcore)
[11] = biological target: δ-catenin peptide PASPDSWV-COOH; test: SPR
[12] = biological target: δ-catenin peptide PASPDSWV-COOH; test: SPR (BIAcore), column δ-Catenin; number at the left of panel F (on rate per paragraph 112), unit from the column head of Table 4
[13] = biological target: SH2 domain of human Grb2 (human), P62993; test: panel E, competition phage ELISA: wtSH2 (Grb2-SH2) phages incubated with free pY1208 peptide (0 to about 2200 nM), phages not bound to the free peptide captured and detected
[14] = biological target: SUMO-ARVCF fusion protein (yeast); test: SPR, equilibrium mode, target peptide fused to yeast SUMO

Chain of SH2 domain of human Grb2 (human), P62993 (P62993 56-153 limits assumed): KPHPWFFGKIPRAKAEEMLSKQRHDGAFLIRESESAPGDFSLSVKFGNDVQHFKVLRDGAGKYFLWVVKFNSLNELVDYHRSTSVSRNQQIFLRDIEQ

IC50 [1] [nM] | Kd [2] [nM] | Kd [3] [nM] | koff [3] [s⁻¹] | kon [3] [M⁻¹ s⁻¹] | Affinity Enhancement (Kd of cpPDZFN for ARVCF / Kd of the clamp) [4] [fold] | Specificity Index (Kd for δ-catenin / Kd for ARVCF) [8] [fold] | Binder | other results
59 | 56 | 56 | 0.011 | 190000 | 520 |  | enhanced PDZ-b (designed binder) MKHHHHHHHHHHSSDYKDDDDKGENLYFQGSPELGFSISGGVGGRGNPFRPDDDGIFVTRVQPEGPASKLLQPGDKIIQANGYSFINIEHGQAVSLLKTFQNTVELIIVREVGNGAKQEIRVRVEKDGGSGGVSSVPTNLEVVAATPTSLLISWDAYYDSHVSYYRITYGETGGNSPVQEFTVPGSKSTATISGLKPGVDYTITVYAHYNYHYYSSPISINYRT | Specificity Index (Kd for δ-catenin / Kd for ARVCF) [5]: > 178 fold; Kd [6]: > 10000 nM
 |  | 5 | < 0.00037 | 73000 | 4960 | > 2000 | ePDZ-b1 (designed binder) MKHHHHHHHHHHSSDYKDDDDKGENLYFQGSPELGFSISGGVGGRGNPFRPDDDGIFVTRVQPEGPASKLLQPGDKIIQANGYSFINIEHGQAVSLLKTFQNTVELIIVREVGNGAKQEIRVRVEKDGGSGGVSSVPTNLEVVAATPTSLLISWDAYRELPVSYYRITYGETGGNSPVQEFTVPGSKSTATISGLKPGVDYTITVYAHYNYHYYSSPISINYRT | fold reduction in affinity against the wild-type ARVCF peptide [7]: > 200 fold
40 | 56 | 56 | 0.015 | 290000 | 520 | 8 | enhanced PDZ-a (designed binder) MKHHHHHHHHHHSSDYKDDDDKGENLYFQGSPELGFSISGGVGGRGNPFRPDDDGIFVTRVQPEGPASKLLQPGDKIIQANGYSFINIEHGQAVSLLKTFQNTVELIIVREVGNGAKQEIRVRVEKDGGSGGVSSVPTNLEVVAATPTSLLISWDASYYGVSYYRITYGETGGNSPVQEFTVPYSSSTATISGLKPGVDYTITVYAYSDYYGSHHYSPISINYRT | koff [9]: 0.11 s⁻¹; Kd [10]: 430 nM; Kd [11]: 429 nM; kon [12]: 250000 M⁻¹ s⁻¹
 |  |  |  |  |  |  | NEPLYLNTFANTC (modifications not checked) [peptide corresponding to residues 1204-1216 of ErbB4 receptor (pY1208)] | IC50 [13]: 120 nM
 |  |  |  |  |  |  | circularly permutated PDZ domain (designed binder) PELGFSISGGVGGRGNPFRPDDDGIFVTRVQPEGPASKLLQPGDKIIQANGYSFINIEHGQAVSLLKTFQNTVELIIVREVGNGAKQEIRVRVEKD | Kd [14]: 11000 nM
